The data set deals with Escherichia coli TOP10. The data set is described as follows: shrunken log2 fold change of peptide-encoding DNA abundance (4.5 h post-induction vs induction); higher = less antimicrobial activity (less host growth inhibition). The settings on record: time post-induction: 4.5 h; library: site-saturation at positions 5, 18, 19, 20.

The text below walks through data of the supplement of paper PMC9112550, “Optimization of the antimicrobial peptide Bac7 by deep mutational scanning” (BMC Biology, 2022).
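Also: peptides expressed intracellularly from a pBAD plasmid library in pooled LB shake-flask culture, induced with 0.3% L-arabinose, DNA abundance read by NGS, three biological replicates, DESeq2 with apeglm shrinkage.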

For the sequence RRIRLRPPRLPRPRPRPSAYPRP, the “shrunken log2 fold change” value was found to be 0.0888.
Regarding RRIRQRPPRLPRPRPRPQQSPRP, the “shrunken log2 fold change” value was -0.0224.
RRIRGRPPRLPRPRPRPMLQPRP: the “shrunken log2 fold change” value is 0.324.
Under RRIRLRPPRLPRPRPRPMGGPRP stands 0.26; under RRIRGRPPRLPRPRPRPVVCPRP, 0.812.
RRIRMRPPRLPRPRPRPKSQPRP: the “shrunken log2 fold change” value was found to be 2.06.
Regarding RRIRMRPPRLPRPRPRPHMIPRP, the “shrunken log2 fold change” value is -0.159.
In the case of RRIRLRPPRLPRPRPRPMDDPRP, the “shrunken log2 fold change” value was -0.117.
Regarding RRIRVRPPRLPRPRPRPFHGPRP, the “shrunken log2 fold change” value turned out to be 0.162.
Then RRIRVRPPRLPRPRPRPYIAPRP, with -0.608; and RRIRWRPPRLPRPRPRPYFNPRP, with -1.06.
Under RRIRKRPPRLPRPRPRPRYMPRP stands -0.334; under RRIRKRPPRLPRPRPRPYSFPRP, -0.119; under RRIRVRPPRLPRPRPRPKQWPRP, 0.326.
Regarding RRIRPRPPRLPRPRPRPLERPRP, the “shrunken log2 fold change” value is 0.277.
With RRIRNRPPRLPRPRPRPEGKPRP, the “shrunken log2 fold change” value is -0.0135.
For RRIRCRPPRLPRPRPRPDHIPRP, the “shrunken log2 fold change” value is -0.489.
Take RRIRNRPPRLPRPRPRPSVDPRP: the “shrunken log2 fold change” value was -0.0699.
In the case of RRIRMRPPRLPRPRPRPCFAPRP, the “shrunken log2 fold change” value is 0.431.
In the case of RRIRLRPPRLPRPRPRPREWPRP, the “shrunken log2 fold change” value was -0.0315.
Under RRIRSRPPRLPRPRPRPVACPRP stands 0.271; under RRIRWRPPRLPRPRPRPHQTPRP, 0.0649; under RRIRMRPPRLPRPRPRPVNPPRP, 0.00934.
For RRIRIRPPRLPRPRPRPTMGPRP, the “shrunken log2 fold change” value worked out at 0.0793.
Then RRIRQRPPRLPRPRPRPGAMPRP, with 0.155.
Take RRIRIRPPRLPRPRPRPTCRPRP: the “shrunken log2 fold change” value is -0.103.
Then RRIRRRPPRLPRPRPRPKPGPRP, with 0.535.
In the case of RRIRCRPPRLPRPRPRPDSVPRP, the “shrunken log2 fold change” value was -0.894.
On to RRIRFRPPRLPRPRPRPRTAPRP, for which the “shrunken log2 fold change” value turned out to be 0.162.
Under RRIRFRPPRLPRPRPRPIRCPRP stands 0.0461; under RRIRFRPPRLPRPRPRPIGSPRP, -0.241; under RRIRSRPPRLPRPRPRPFIYPRP, -0.82.
On to RRIRMRPPRLPRPRPRPQFLPRP, for which the “shrunken log2 fold change” value was -0.106.
Regarding RRIRGRPPRLPRPRPRPQIRPRP, the “shrunken log2 fold change” value was 0.808.
Then RRIRRRPPRLPRPRPRPKIYPRP, with -0.127; and RRIRMRPPRLPRPRPRPGSGPRP, with 1.34.
As to RRIRRRPPRLPRPRPRPAAPPRP, the “shrunken log2 fold change” value is 0.922.
On to RRIRARPPRLPRPRPRPTRGPRP, for which the “shrunken log2 fold change” value came to 0.301.
Turning to RRIRSRPPRLPRPRPRPINMPRP, the “shrunken log2 fold change” value is -0.928.
Turning to RRIRKRPPRLPRPRPRPHKVPRP, the “shrunken log2 fold change” value is -0.033.
Regarding RRIRQRPPRLPRPRPRPDMLPRP, the “shrunken log2 fold change” value came to 0.0939.
With RRIRVRPPRLPRPRPRPINIPRP, the “shrunken log2 fold change” value was -0.347.
On to RRIRIRPPRLPRPRPRPCFHPRP, for which the “shrunken log2 fold change” value was -0.532.
As for RRIRDRPPRLPRPRPRPVYVPRP, the “shrunken log2 fold change” value was -0.563.
Then RRIRFRPPRLPRPRPRPHVTPRP, with -0.211; and RRIRCRPPRLPRPRPRPWESPRP, with 0.0539.
On to RRIRNRPPRLPRPRPRPSTKPRP, for which the “shrunken log2 fold change” value is -0.0203.
RRIRSRPPRLPRPRPRPARKPRP: the “shrunken log2 fold change” value amounted to 0.213.
As to RRIRARPPRLPRPRPRPGMGPRP, the “shrunken log2 fold change” value worked out at 0.639.
On to RRIRTRPPRLPRPRPRPLVLPRP, for which the “shrunken log2 fold change” value was -0.162.
Under RRIRSRPPRLPRPRPRPYIKPRP stands -0.234; under RRIRCRPPRLPRPRPRPMVHPRP, -0.452.
Take RRIRCRPPRLPRPRPRPFKDPRP: the “shrunken log2 fold change” value was -0.54.
Under RRIRYRPPRLPRPRPRPWVLPRP stands -0.223; under RRIRARPPRLPRPRPRPYCIPRP, -0.151; under RRIRVRPPRLPRPRPRPPNTPRP, -0.0576.
Under RRIRWRPPRLPRPRPRPRFSPRP stands 0.0681; under RRIRKRPPRLPRPRPRPYYAPRP, -0.0013; under RRIRWRPPRLPRPRPRPWRKPRP, -0.139.
Under RRIRTRPPRLPRPRPRPRLCPRP stands 0.317; under RRIRVRPPRLPRPRPRPVQVPRP, -0.269.
For the sequence RRIRIRPPRLPRPRPRPVLKPRP, the “shrunken log2 fold change” value was -0.234.
Under RRIRKRPPRLPRPRPRPESMPRP stands 0.603; under RRIRPRPPRLPRPRPRPYGWPRP, -0.248.
RRIRRRPPRLPRPRPRPYQKPRP: the “shrunken log2 fold change” value was -0.458.
For RRIRVRPPRLPRPRPRPSWSPRP, the “shrunken log2 fold change” value was 0.0478.
Then RRIRCRPPRLPRPRPRPSPNPRP, with -0.102.
Turning to RRIRRRPPRLPRPRPRPAIRPRP, the “shrunken log2 fold change” value was -0.0892.
On to RRIRRRPPRLPRPRPRPDSIPRP, for which the “shrunken log2 fold change” value was -0.199.
For RRIRPRPPRLPRPRPRPCSQPRP, the “shrunken log2 fold change” value is -0.257.
With RRIRSRPPRLPRPRPRPWPCPRP, the “shrunken log2 fold change” value stood at 0.134.
Turning to RRIRTRPPRLPRPRPRPNAPPRP, the “shrunken log2 fold change” value was -0.0472.
With RRIRPRPPRLPRPRPRPIDGPRP, the “shrunken log2 fold change” value turned out to be 0.023.
Consider RRIRVRPPRLPRPRPRPVHQPRP, for which the “shrunken log2 fold change” value came out at 0.241.
As for RRIRERPPRLPRPRPRPDTHPRP, the “shrunken log2 fold change” value is -0.532.
Under RRIRHRPPRLPRPRPRPNPAPRP stands -0.0505; under RRIRCRPPRLPRPRPRPDEQPRP, -0.00573; under RRIRVRPPRLPRPRPRPFHYPRP, -0.318.
Consider RRIRQRPPRLPRPRPRPQRWPRP, for which the “shrunken log2 fold change” value came out at 0.178.
As for RRIRARPPRLPRPRPRPQINPRP, the “shrunken log2 fold change” value was -0.0458.
As to RRIRYRPPRLPRPRPRPPSIPRP, the “shrunken log2 fold change” value was -0.285.
In the case of RRIRSRPPRLPRPRPRPIHVPRP, the “shrunken log2 fold change” value is -0.154.
Regarding RRIRMRPPRLPRPRPRPEEGPRP, the “shrunken log2 fold change” value was 0.0237.
Then RRIRQRPPRLPRPRPRPRAMPRP, with 0.0219; and RRIRERPPRLPRPRPRPKESPRP, with 0.0252.
Under RRIRQRPPRLPRPRPRPYTKPRP stands -0.111; under RRIRRRPPRLPRPRPRPRPEPRP, 0.343.
In the case of RRIRHRPPRLPRPRPRPKFMPRP, the “shrunken log2 fold change” value is -0.497.
Then RRIRNRPPRLPRPRPRPQDTPRP, with -0.0984.
On to RRIRRRPPRLPRPRPRPLNCPRP, for which the “shrunken log2 fold change” value is -0.304.
With RRIRYRPPRLPRPRPRPLNVPRP, the “shrunken log2 fold change” value was 0.0468.
Turning to RRIRIRPPRLPRPRPRPYEEPRP, the “shrunken log2 fold change” value was -0.828.
RRIRERPPRLPRPRPRPQNPPRP: the “shrunken log2 fold change” value is -0.213.
Under RRIRKRPPRLPRPRPRPSDWPRP stands 0.288; under RRIRTRPPRLPRPRPRPVCFPRP, -0.104.
Under RRIRVRPPRLPRPRPRPSVEPRP stands -0.0446; under RRIRDRPPRLPRPRPRPLDLPRP, -0.116; under RRIRGRPPRLPRPRPRPGSFPRP, 0.286.
Under RRIRQRPPRLPRPRPRPHHEPRP stands 0.0974; under RRIRQRPPRLPRPRPRPGDLPRP, 0.01.
With RRIRVRPPRLPRPRPRPIDSPRP, the “shrunken log2 fold change” value was -0.0289.
Regarding RRIRFRPPRLPRPRPRPLKSPRP, the “shrunken log2 fold change” value was -0.307.
Turning to RRIRFRPPRLPRPRPRPLPAPRP, the “shrunken log2 fold change” value was found to be 0.51.
Take RRIRYRPPRLPRPRPRPHTGPRP: the “shrunken log2 fold change” value was -1.06.
RRIRARPPRLPRPRPRPFKPPRP: the “shrunken log2 fold change” value is -0.0739.
Under RRIRGRPPRLPRPRPRPCYIPRP stands 0.0972.
Turning to RRIRRRPPRLPRPRPRPDGQPRP, the “shrunken log2 fold change” value is 0.298.
In the case of RRIRWRPPRLPRPRPRPQRDPRP, the “shrunken log2 fold change” value was -0.0245.
Then RRIRHRPPRLPRPRPRPGLYPRP, with -0.149.
Take RRIRWRPPRLPRPRPRPQNYPRP: the “shrunken log2 fold change” value is -0.445.
In the case of RRIRVRPPRLPRPRPRPARFPRP, the “shrunken log2 fold change” value is 0.16.
Regarding RRIRTRPPRLPRPRPRPQRNPRP, the “shrunken log2 fold change” value is -0.115.
Under RRIRCRPPRLPRPRPRPGTKPRP stands -0.404; under RRIRSRPPRLPRPRPRPSKYPRP, -0.345.
On to RRIRYRPPRLPRPRPRPMLVPRP, for which the “shrunken log2 fold change” value is -0.176.
Regarding RRIRNRPPRLPRPRPRPYIYPRP, the “shrunken log2 fold change” value is -0.514.
Then RRIRIRPPRLPRPRPRPSRMPRP, with -0.271; and RRIRLRPPRLPRPRPRPSRHPRP, with -0.415.
For RRIRWRPPRLPRPRPRPVYEPRP, the “shrunken log2 fold change” value is -0.00561.
Consider RRIRKRPPRLPRPRPRPMKKPRP, for which the “shrunken log2 fold change” value is 0.172.
For RRIRMRPPRLPRPRPRPLWIPRP, the “shrunken log2 fold change” value is -0.00647.
On to RRIRYRPPRLPRPRPRPYRGPRP, for which the “shrunken log2 fold change” value is -0.765.
In the case of RRIRCRPPRLPRPRPRPHPPPRP, the “shrunken log2 fold change” value stood at 0.809.
Regarding RRIRVRPPRLPRPRPRPIVGPRP, the “shrunken log2 fold change” value was 0.0676.
Consider RRIRQRPPRLPRPRPRPTTHPRP, for which the “shrunken log2 fold change” value amounted to 0.00963.
